Experimental data reported in patent US6861399B2, “Cleaning compositions containing human serine protease T” (Ortho-McNeil Pharmaceutical , Inc., priority 1999, dated 2005).
Non-standard residues stand in square brackets, D forms with d. *: point of attachment. pNA = O=[N+]([O-])c1ccc(N*)cc1; HHT = not defined here

Target: T1, activated protease T-HA6×HIS (Homo sapiens, UniProt Q9BQR3, D40A/M35I/Q39Y/Q42E/T41L)
T1 construct: made in house; host or cells: Sf9 insect cells (baculovirus)
Test: Amidolytic activity of activated protease T on chromogenic pNA substrates
Assay type: biochemical
Conditions: substrate at 500 uM; 10 mM Tris-HCl pH 7.8, 25 mM NaCl, 25 mM imidazole; pNA release over 120 minutes at 37° C., 405 nm; N.A. = No Activity
Method: The conditioned medium from infected Sf9 cells was used to purify secreted recombinant PFEK-protease T-HA6×HIS zymogen. The medium was concentrated 5 to 10 fold using a Centriprep concentrator (Amicon Inc., Beverly, Mass.). 150 μl of a 50% Ni-NTA slurry (Qiagen, Valencia, Calif.) was added to 5 to 10 ml of the concentrated medium and mixed by shaking at 4° C. for 60 minutes. The zymogen-bound resin was washed 3 times with 1.5 ml of wash buffer (10 mM Tris-HCl (pH 8.0), 300 mM NaCl, and 15 mM imidazole), followed by with a 1.5 ml wash with ds H2O. Enterokinase cleavage was carried out by adding enterokinase (Novagen, Inc., Madison Wis.; or Sigma, St. Louis, Mo.) to the zymogen-bound Ni-NTA beads in a 150 ul volume at room temperature overnight with gentle shaking in a buffer containing 20 mM Tris-HCl (pH 7.4), 50 mM NaCl, and 2.0 mM CaCl2. The resin was then washed twice with 1.5 ml wash buffer. The activated protease T-HA6×HIS was eluted with elution buffer (20 mM Tris-HCl (pH 7.8), 250 mM NaCl, and 250 mM imidazole). Eluted protein concentration was determined by a Micro BCA Kit (Pierce, Rockford, Ill.) using bovine serum albumin as a standard. Amidolytic activities of the activated protease T-HA6×HIS was monitored by release of para-nitroaniline (pNA) from the synthetic substrates indicated in Table 1 and FIG. 6. […] Release of pNA was measured over 120 minutes at 37° C. on a micro-plate reader (Molecular Devices, Menlo Park, Calif.) with a 405 nm absorbance filter. The initial reaction rates (Vmax, mOD/min) were determined from plots of absorbance versus time using Softmax (Molecular Devices, Menlo Park, Calif.). […]
Amidolytic activities of the activated serine proteases are monitored by release of para-nitroaniline (pNA) from synthetic substrates that are commercially available (Bachem California Inc., Torrance, […].; American Diagnostica Inc., Greenwich, Conn.; Kabi Pharmacia Hepar Inc., Franklin, Ohio). […] Release of pNA is measured over 120 min at 37° C. on a micro-plate reader (Molecular Devices, Menlo Park, Calif.) with a 405 nm absorbance filter. […]

T1 sequence (Q9BQR3 35-290 M35I/Q39Y/D40A/T41L/Q42E limits assumed): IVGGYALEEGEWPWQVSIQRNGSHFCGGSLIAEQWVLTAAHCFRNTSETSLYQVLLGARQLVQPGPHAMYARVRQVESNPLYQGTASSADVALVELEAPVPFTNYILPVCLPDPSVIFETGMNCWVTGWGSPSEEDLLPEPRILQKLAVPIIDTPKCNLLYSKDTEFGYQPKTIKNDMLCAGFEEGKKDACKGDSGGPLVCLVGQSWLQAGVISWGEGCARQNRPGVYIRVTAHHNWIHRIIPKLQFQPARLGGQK

Substance	Specific Activity
H-D-Lys(CBO)-Pro-Arg-pNA (H-[dK](CBO)-Pro-Arg-pNA) [commercially available chromogenic substrate]	0.057 ± 0.022 nmole pNA produced/min/μg protein
H-DL-Val-Leu-Arg-pNA (H-Val-Leu-Arg-pNA; also: DL-Val (racemic) at 1) [commercially available chromogenic substrate]	0.016 ± 0.003 nmole pNA produced/min/μg protein
H-D-Pro-HHT-Arg-pNA (H-[dP]-[HHT]-Arg-pNA; reading uncertain; also: printed as H-D-Pro-HHT-Arg-pNA) [commercially available chromogenic substrate]	0.010 ± 0.000 nmole pNA produced/min/μg protein
